Data on four proteins can be found in article doi:10.1101/2020.05.15.096610 (bioRxiv, 2020).

What is called stoichiometry N is a count of units in the complex or per binding partner.

Where two headings read alike, the source gives them in different places.

Data set [1] concerns the molecule itself. The data set is described as follows: cryo-EM structure.
Data set [2] concerns the molecule itself. Put plainly: cryo-EM structure. The source holds these as a separate data set.

B1: Campylobacter jejuni MotB(Δ41-60) (natural protein, UniProt Q0PBH3 1-247, looked up)
chain: MAKKHKCPECPAGEKWAVPYADFLSLLLALFIALWAISKTTQTVKEESKTQEKYKGAAKEESDELKSLKQMTMTQQETIKRLQAALDQSDNQVALNLPSKVEFERGSAQIVSADIQDYLKRMAELTTYLPPQAKIEIRGYTDNSDSIIRSYELAYQRAENVLKYFIEGGANLKNISIKSYGLNNPINGNPQTLENNRVEIYFKVDTADTSTQKSVLELINKIGTKAP
B1: the binding result in the data set “cryo-EM structure [1]” is “binds”.

B2: Campylobacter jejuni MotB(Δ41-60, D22N) (natural protein, UniProt Q0PBH3 1-247, looked up)
chain: MAKKHKCPECPAGEKWAVPYANFLSLLLALFIALWAISKTTQTVKEESKTQEKYKGAAKEESDELKSLKQMTMTQQETIKRLQAALDQSDNQVALNLPSKVEFERGSAQIVSADIQDYLKRMAELTTYLPPQAKIEIRGYTDNSDSIIRSYELAYQRAENVLKYFIEGGANLKNISIKSYGLNNPINGNPQTLENNRVEIYFKVDTADTSTQKSVLELINKIGTKAP
As to B2, in “cryo-EM structure [1]”, the binding result is given as “binds”.

B3: Vibrio alginolyticus PomB (natural protein, UniProt O06874 1-315, looked up)
chain: MDDEDNKCDCPPPGLPLWMGTFADLMSLLMCFFVLLLSFSEMDVLKFKQIAGSMKFAFGVQNQLEVKDIPKGTSIIAQEFRPGRPEPTPIDVIMQQTMDITQQTLEFHEGESDRAGGTKRDEGKLTGGQSPATSTQNNESAEADMQQQQSKEMSQEMETLMESIKKALEREIEQGAIEVENLGQQIVIRMREKGAFPEGSAFLQPKFRPLVRQIAELVKDVPGIVRVSGHTDNRPLDSELYRSNWDLSSQRAVSVAQEMEKVRGFSHQRLRVRGMADTEPLLPNDSDDNRALNRRVEISIMQGEPLYSEEVPVIQ
Consider B3, for which the “stoichiometry N” value in “cryo-EM structure [2]” amounted to 2.

B4: Campylobacter jejuni MotB (natural protein, UniProt Q0PBH3 1-247, looked up)
chain: MAKKHKCPECPAGEKWAVPYADFLSLLLALFIALWAISKTNPAKVEALKTEFVKIFDYTSTQTVKEESKTQEKYKGAAKEESDELKSLKQMTMTQQETIKRLQAALDQSDNQVALNLPSKVEFERGSAQIVSADIQDYLKRMAELTTYLPPQAKIEIRGYTDNSDSIIRSYELAYQRAENVLKYFIEGGANLKNISIKSYGLNNPINGNPQTLENNRVEIYFKVDTADTSTQKSVLELINKIGTKAP
Turning to B4, in “cryo-EM structure [1]”, the “stoichiometry N” value came to 2.
